Measured values published in patent US6046165.

Tests used:
[1] = target: MAD^N (B-Pv) (Drosophila melanogaster) (UniProt P42003); assay: EMSA
[2] = target: MAD full length (B-H) (Drosophila melanogaster) (UniProt P42003); assay: EMSA; conditions: approximately 100-fold lower than MAD^N
Chain of MAD full length (B-H) (Drosophila melanogaster) (P42003 whole entry): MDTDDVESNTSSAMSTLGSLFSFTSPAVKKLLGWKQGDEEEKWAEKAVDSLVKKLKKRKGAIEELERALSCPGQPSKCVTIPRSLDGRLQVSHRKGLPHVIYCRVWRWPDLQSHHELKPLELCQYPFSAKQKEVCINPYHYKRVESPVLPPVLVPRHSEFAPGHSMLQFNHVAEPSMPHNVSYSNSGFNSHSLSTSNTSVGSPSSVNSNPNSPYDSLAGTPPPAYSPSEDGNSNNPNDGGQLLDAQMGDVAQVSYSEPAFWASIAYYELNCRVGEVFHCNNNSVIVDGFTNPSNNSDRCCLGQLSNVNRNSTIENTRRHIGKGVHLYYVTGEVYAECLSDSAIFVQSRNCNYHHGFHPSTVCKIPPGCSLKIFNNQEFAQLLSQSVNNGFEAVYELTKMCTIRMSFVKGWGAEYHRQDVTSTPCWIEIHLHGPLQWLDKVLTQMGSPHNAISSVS

Chain of MAD^N (B-Pv) (Drosophila melanogaster) (P42003 1-241): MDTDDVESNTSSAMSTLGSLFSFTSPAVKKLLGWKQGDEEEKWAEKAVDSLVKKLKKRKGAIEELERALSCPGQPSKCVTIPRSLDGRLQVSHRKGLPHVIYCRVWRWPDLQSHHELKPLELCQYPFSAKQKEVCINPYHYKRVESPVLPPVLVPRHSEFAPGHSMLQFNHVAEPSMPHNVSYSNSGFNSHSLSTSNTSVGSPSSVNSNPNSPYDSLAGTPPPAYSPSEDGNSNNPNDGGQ

For “ATTC (double strand) [MAD binding site (FIG. 7B)]”, the binding signal ([1]; wild-type reference) was 1 reference.

“ATTC (double strand) [MAD binding site GCT to CGC]” was tested, and the binding signal ([1]; increased affinity vs wild-type site, MBP fusion) was 6 fold vs n15.

In the case of ATTC (double strand) [Vg 20 bp], the binding signal (fraction of MAD^N) [2] is reported as 0.01.
